From US20200069778A1, “PLANT-EXPRESSED COCAINE HYDROLASE VARIANTS OF BUTYRYLCHOL[…] METHODS OF REDUCING COCAINE-PRIMED REINSTATEMENT” (priority 2018, published 2020) come the findings set out here.

The data set can be described thus: Radiometric (−)-cocaine hydrolysis assay. In kind it is biochemical. Conditions: 25° C.

B1: WT pBChE (protein, UniProt P06276 29-602, looked up)
Cholinesterase: EDDIIIATKNGKVRGMNLTVFGGTVTAFLGIPYAQPPLGRLRFKKPQSLTKWSDIWNATKYANSCCQNIDQSFPGFHGSEMWNPNTDLSEDCLYLNVWIPAPKPKNATVLIWIYGGGFQTGTSSLHVYDGKFLARVERVIVVSMNYRVGALGFLALPGNPEAPGNMGLFDQQLALQWVQKNIAAFGGNPKSVTLFGESAGAASVSLHLLSPGSHSLFTRAILQSGSFNAPWAVTSLYEARNRTLNLAKLTGCSRENETEIIKCLRNKDPQEILLNEAFVVPYGTPLSVNFGPTVDGDFLTDMPDILLELGQFKKTQILVGVNKDEGTAFLVYGAPGFSKDNNSIITRKEFQEGLKIFFPGVSEFGKESILFHYTDWVDDQRPENYREALGDVVGDYNFICPALEFTKKFSEWGNNAFFYYFEHRSSKLPWPEWMGVMHGYEIEFVFGLPLERRDNYTKAEEILSRSIVKRWANFAKYGNPNETQNNSTSWPVFKSTEQKYLTLNTESTRIMTKLRAQQCRFWTSFFPKVLEMTGNIDEAEWEWKAGFHRWNNYMMDWKNQFNDYTSKKESCVGL
modifications: plant-expressed
In general, Km refers to the substrate concentration at which the rate is half of its maximum. Take B1: the Km was 2.9 µM and the “kcat against (−)-cocaine” value is 0.0433 s⁻¹.
